Earlier results, collected in paper PMC7671103.
Where “and” joins values, the source holds several entries; their conditions need not be identical. Equal entries are not always repeated.

Molecular target: CoV main protease (Mpro) (SARS-CoV) (UniProt P0C6X7)

CoV main protease (Mpro) (from UniProt P0C6X7)
Kd: 800 nM and 2000 nM
